Laboratory results taken from a protein production outcome set (Wang et al. 2014).

Assay: label from the status in PepcDB records

| Sequence | protein production |
| --- | --- |
| MSLTRTQTYRATIESDIESYLKKAIPIRAPESVFEPMHHLTFAAPRTSASALCVAACELVGGDRSDAMAAAAAVHLMHVAAYTHENLPLTDGPMSKSEIQHKFDPNIELLTGDGIIPFGLELMARSMDPTRNNPDRILRAIIELTRVMGSEGIVEGQYHELGLNQLNDLELIEYVCKKKEGTLHACGAACGAILGGCDEDKIEKLRRFGLYVGTVQGLLGKNRSGFEGRIKELKELAVKELESFGGEKIELIRGVFELEHSLAGVEGHHHHHH | not failed |
| MGTKKNFVLDTNVILHDYNCLKNFQENDIYLPIVVLEELDKFKKGNEQINYNAREFVRELDLITDDSLFTHGAPLGEGLGKLFIVTGDSEAPKVHESFPARKPDHQILAVAEYLARKYPKMKNILVTKDVNLRMKARSIGILCEDYITDKVVNVDIFE | failed |
| MAPEPLSAAGQNLIDTATSVINGIPVSDFYSVASAAISDDGRVFSGVNVYHFNGGPCAELVVLGVAAAAGATKLTHIVAIANEGRGILSPCGRCRQVLADLHPGIKAIVIGKEGPKMVAVEELLPSIYAWDKDYDRI | not failed |
| MQESGCRLEHPSATKFRNHVMEGDWDKAENDLNELKPLVHSPHAIVVRGALEISQTLLGIIVRMKFLLLQQKYLEYLEDGKVLEALQVLRCELTPLKYNTERIHVLSGYLMCSHAEDLRAKAEWEGKGTASRSKLLDKLQTYLPPSVMLPPRRLQTLLRQAVELQRDRCLYHNTKLDNNLDSVSLLIDHVCSRRQFPCYTQQILTEHCNEVWFCKFSNDGTKLATGSKDTTVIIWQVDPDTHLLKLLKTLEGHAYGVSYIAWSPDDNYLVACGPDDCSELWLWNVQTGELRTKMSQSHEDSLTSVAWNPDGKRFVTGGQRGQFYQCDLDGNLLDSWEGVRVQCLWCLSDGKTVLASDTHQRIRGYNFEDLTDRNIVQEDHPIMSFTISKNGRLALLNVATQGVHLWDLQDRVLVRKYQGVTQGFYTIHSCFGGHNEDFIASGSEDHKVYIWHKRSELPIAELTGHTRTVNCVSWNPQIPSMMASASDDGTVRIWGPAPFIDHQNIEEECSSMDS | failed |
| MSMNDTYQPINCDDYDNLELACQHHLMLTLELKDGEKLQAKASDLVSRKNVEYLVVEAAGETRELRLDKITSFSHPEIGTVVVSES | failed |
| MSLTTRHTIGARLLLAFAFSTSLLTIVSLVAWGTWSRLDYQVAELLNQSVPKYNTSYVLETRSSEIRRRIQLIVSATSKVTLNQQYQRLQEDFTAIHAALASLPQNEQQAALQQGYTELRQTTQQINDLVSARIDVDRRLALFAEQLDWLHQDIGMELSPMRQELQWQLERGGAAQPQAQVMFQTINLIQTILDGETQAFLFVDELLKAKHLTQVDNGMRVLQYRLDELSRLSQPLFTQPSSIAYQQLLEEWRNVLRLEGDFQQSLRDRVVLTQKLESTSEQLQIQLDQQHTAIADLVANADALFVQVKGQTAQLVQEGNRVLLICFGLSIGLSLLLMYYFVHKRIVGRLHRLSESLDAIIHNDLSHPITVDGKDEIGALSEQLILYGKKVEEMERTNALSLINNTQASLITCDRYGQIESANPSAMATLRLESLAQPLTLWSCFAKHVQPKVGNULLLFDKKGNLIQKGAESLTLSLGNPEKPHYLRLYLRRYSQGLHDKIIVTITDVTDQEHANRLLEQRVKEKTQSLREKNRELQAEVEERQRAEAHLKKTQGELIQAAKMAVVGQTMTSLAHELNQPLSAMSAYLFSARLALEEAPQAQLATSLDHIENLTERMGKIVNSLRHFARKNSSDESLQPVRLNSVVEQALVLVQTKAKRQQIKLINTLPDDLMVMADALSLEQVLINLIVNGCDASTTFAQPWVKLIALGTEQGMQRIAVIDSGQGFEHEVVDKLFTPFTTTKEVGLGLGLSICQSLVEKMQGRIALASNLEKGAMVILELQQDEKYRTAD | failed |
| MAAWRAEARRLAQAGVPAESVVWRVGAGEADLFADLPALPAGPARQIRLSREAVGSLETALCHADPERFGRAYGLLLRLADGTLRWGDRSDPALRKLLAQEKMVRREIHKMHAFVRFRELPSEGPRRAFAAWFEPDHPVEEAATPFFARRFGDMDWAIVTPEVTARFVAGQLDFALTEERTAPPADGTEELWRTYYANIFNPARLMVKAMQSEMPKRYWKNLPEAELIPGLIRGAAERAAEMQAAAPTEPPARTAAVARQRAAAAGGPAAAGDGSAPGTLAEAKTAAEGCRRCGLWANATQVVFGEGPATARMMIVGEQPGDREDLAGRPFVGPAGQLFDEEAAAAGLDRGSVYVTNAVKHFKFAPRGKRRIHQKPDAGEVTACRWWLDLERDLVRPRLIVAMGATALASLTGSGAGILKRRGSVERLDDGTPVFVTVHPSYILRLPDEAARVEERRRFRDDLQAARQLLERLD | failed |
| MLDLVAAFIALTTLLTYVNYRFIRLPPTIGVMATALVFSLIVQGLSELGYPILEVEMQEIIRRIDFSEVLMTWFLPALLFAGALHVDLSDLRSYKWPIGLLATAGVLIATFVIGGLAYYTFPLFGWQVDFIYCLLFGALISPTDPIAVLGILKSAGAPKPLATTIVGESLFNDGTAVVVFAIILGILQLGEAPTVSATAILFVQEAIGGVVFGAVLGYGVFVMMRGIDQYQVEVMLTLALVIGGAALAARLHVSAPIAMVVAGLIIGNHGRHYAMSDETRRYVDKFWELIDEILNALLFALIGLELLLLPFSWLHVAAAFALGGAVLVSRLLTVGPAILVLRRFRGANRQVPAGTIRILVWGGLRGGVSVALALSLPLGPERDLILSLTYIVVLVSILLQGLSIGPLVRRIYAGQPLEKSEGAH | failed |
| MPTVKKLTKQVVDGLPTPATGQAFHWCSVTPGFAVRVTASGAKSYIVQGRVNSKTCRYTIGPCELLGTDEARKRALARLLEMHDGMNPQVERKRRQAQGVTLREVMEDYVENKRTKHGTLRDSSQADIKRCVTQHLADWADKPVASITREACVKRFRELSATAPTTANQVFRNLRALCNWARETNVAPDGSYPILPINPVVQAFKSVTWNKEVTREEFVPLAKVGAVWNMLAERSNAQIYTTADVTAAHLVMFLILTGARIGEGSALHWKDVRLDDEVPSFTFTQTKNHNEVTIPLSTQLHALLAARYSARRPDEEYVFPSRTGTREPHMQDARGTMQRVSKIAGLHLHNHDLRRTFLAIAIECGVEMWKAEILTNHLPQTVTLKHYTQTRDLRYLQADTQRVADWITKQAQVASGQNVVALRA | failed |
| MIYFCHAPNDRAIAEKIYFSLKQTGLTCWIPSQDIMAGQYYVEAIANAIEKSDIVVFIFSSHSNTSIQVIDELQKASSLNKTIIPFCVDRAMPSEPIEHYLSSPYKVDATIGLPDDNIAKLQNIIKQIYNQSSVHNANDINTVKDTFAPSNPLENNTNIIKDASDNNSQESIQFNGVINSANSQPPQNPNLPPQHQMNPNFNNTVNNMDRNMNYPIKQNVRPNPQVKSSNKIKIPLIIGGSIAGGIILLSILFMLGKNLLFSTLINSHRPSDNPVIGSNIRIDGSKYTEEEIIEFTKNAILELDRLQASREFYDTYAYNAPEYDLMRIQENVFFSLMDLDVVRFEEVAILGKNEKEHGIEYLLKVDFVCYADYEYTENNETVHRKGEALLYNNVVILETPNDGLKYLYMEGIFEDELNARNENLESSYREIAESGDVNTEDTIQTYLPDSTDEDTIMSVKDIVKKNDHKVVAVYVDVPGGQSQGSGFFIKDGVIVTNYHVIEGGKSAKILLSNGNYVDVEGVLYTDSDVDIAVLKLVNEVGIEPVTIGQARDSDKGSIAVAIGSPLGLFNTVSTGIISNFWEANGVNLIQISIPITHGNSGGALFNESGKLIGITSSGIGEANLNFAISSTHIIPICEDIKNIPYNQLNAVPLSSAGGNINSITRQAGSSNSNQSSSSGKSLLSSKYRFVNSDKPISNDATYTSDLQTIYDLALNKYYAKEDLYRDLDYAFDYILDYGTKYYLEYLEYILHETYIKEDVENFNKINESVLEVLNTTGEYIEFTADEIEIIGAGIKNDGTIDGIIVRALFYENSEPYVRSKFYFRANYDAWSYVDGFLYVGEVTEK | failed |
| MLSTEHFLLFASIVLFAGIMAGKVGYRFGIPTLLIFLFTGMLFGVDGFGFQFSNADVAQSVGIIALSIILFTGGMDTRIRKVRPVIAQGLTLSTLGVLLTALLSGFFIFWLSGSDFGPYPFALSTSLLLAATMASTDSASVFAILRSQKMQLKENLAPTLEMESGSNDPMAYMLTIALIDFITTGQSGIGSIVLTFILQFVVGGTLGFLMGRLAVFILNRMNIHNDTLYPITLLCMVFFTFSVTSLLQGNGYLAVYIAGIVVGNNRVIHKKSINTFLDGITWLVQIILFILLGLLVNPREMLDVAPFSLVVGAFMILIARPLAVYFCLIPFRKISFRGKTFLSWVGLRGAVPIIFATYPMIDNIPGADQLFNVVFFITILSLLVQGSTISQVARWLGLDIPSPPIGSLFGVEIPEETGTKLEERVVDASMLSHGDLLMNLSLRDEELVILVRRGEGYRVPKGRMHLQVGDVLLIVSEKNLSQTLTSGDPENHPGLLQRLKHRLLRR | failed |
| MPTICEFLGYKVYMFYQDHSPPHIHVIGKGFRAALSIPEGKLLAGTLPRRVQGVAKMWVRQEATALMQNWLRAEAGEVLQQVKPPEGWLEHHHHHH | failed |
| MKVRNVIIGFMVASLTGCSMGHRDPVEIKQTLDKSINENGGLLLADLPASVQADLMPELNTPHVEVEEPVKRFRVRANGVGAKAFFTSLVKGTEYSVVIHPQVSGRITMNLSDVTMDDVLSSVEDLYGYDIVKAGKVLQVYPATIRTETIPVDYLQLTRKGRSLTTITTGSITNSDNNSSNNNNSSSKSNNNSSSSSSSATGGTEIETTSESDFWKELETAISVMIGNGADRSVVVSPQASVVTITASPDELRKVKQFLGTSHKRLQRQVILEAKLLEVTLSDGYQQGINWSNLTASLGGTDVVFGQTSGLVQGALPGMDTIGTLLGGQTNITVSDGNFQAVLSFMDTQGDLNVLSSPRVTAANNQKAVIKVGRDEYYVTEVSSVTGSGDNSNASPEVTLTPFFSGISLDVTPQIDDKGNVMLHVHPSVIDVENEVKEIDLGDVGGVLKLPLAKSSIRESDSVIRAKSGDVVVIGGLMKSQTVDQVSKVPLLGDVPALGHLFRNVSQLTQKTELVILLKPTVVGVDTWQEELERSRDLLQEWFPDELEHHHHHH | not failed |
| MEKILLERNWQDLEKLVLVSSKKAIRTLVNRIYIKDGLGFWRAVEALGVASALAEEQKKDSSVELVRRYFWSLNEESGGNAWNAAEAIGSIMASNPKECGHFNWMLANLLEDESLQEGTLWGLLNLSINAPEVVDPLVERVYPFLEARDVNQRGLAVWIFSLMKACPSAKERWEIEEELHKTLIQDQEMAEIYWEGEYYHFPVSELLGKEIVTFYAREYKQADFTWNISVASSQKGLCWVGLGTPEKEEGELRTWVQKRVPGSLVIPRALPNQKVMEQLEDYFSGIRQEFNLPLDPRGTDFQLKVWEELCRIPYGETRSYGEIAQNIGNPKGQRAVGLANNKNPIAIIIPCHRVVGKKGDLVGYASGLDHKVRLLNWEAAHRHQ | failed |
| MTVTSPRIATILLLIVCFIWGVEFVPIDLAIEVMPTNTFNAIRFAVATLSMLPLLWFVQKKNKGNSKPIDYVLLIRSGMLLGFFLFIGFYTQTEGMRFTTVTNAGFITGLCVPLVPVLGFLIFRNVVPKSVWIGVVTATAGLYMLTIGDKLVFNKGDILVLICAFGFAGHIIMTDRFVDNLPIIPLSIVQIFAVSIYSTIAIFIGPDPVFYYQDAEPVSWYQQLFTPLMIFAILVSGILGTAYAFWAQSVSQTLLKPHKVALIFAAEPVFACIAAWVFLDEVLGEKGMIGAGLILAGMLVSELGDRKKQPELRALDQTAALK | failed |
| MSTRWLLLAAFAAGAALFSSFLKALFFAACLACAFRPLSRRLEAWRGPLVAAGLTTALAGMCLVIPVAVVGSLAAPQAVQGLAVLDGLRESNWFTSPEAQQLVDDIDARLRDLPGLEGGLRGLARNAAGILGTAARTALAGGVGLAGGALNAVLQGFIVLMLIFVFTAYARHIQRFALALLPMPRAMLDRCVTAFRGAVVGVLAGVVLVAAIQGVLCGIGFAVAGVPQAAFWGFIAAMVAPIPVVGTMAVWIPACAWLWFAGKTTAAIGLVLWSAIIVSGSDNILRPIFLKTGIEAPIALIFLAIICGLAAFGPMGLLLGPVLLALGLQLAREGLPGAPGVSGVSGAVEPRE | failed |
